Measurements published in paper PMC11230452 (bioRxiv, 2024).

Target: the molecule itself
Assay: cryo-EM structure

| Protein | stoichiometry N | binding result |
| --- | --- | --- |
| K2P13.1EM (human K2P13.1 (THIK-1) residues 1-350, N59Q/N65Q) (domain or fragment, UniProt Q9HB14 1-350, looked up) MAGRGFSWGPGHLNEDNARFLLLAALIVLYLLGGAAVFSALELAHERQAKQRWEERLAQFSRGHQLSRDELRGFLRHYEEATRAGIRVDNVRPRWDFTGAFYFVGTVVSTIGFGMTTPATVGGKIFLIFYGLVGCSSTILFFNLFLERLITIIAYIMKSCHQRQLRRRGALPQESLKDAGQCEVDSLAGWKPSVYYVMLILCTASILISCCASAMYTPIEGWSYFDSLYFCFVAFSTIGFGDLVSSQNAHYESQGLYRFANFVFILMGVCCIYSLFNVISILIKQSLNWILRKMDSGCCPQCQRGLLRSRRNVVMPGSVRNRCNISIETDGVAESDTDGRRLSGEMISMK | 2 | – |
| K2P13.1EM S136P/Y273A (domain or fragment, human, UniProt Q9HB14 1-350, looked up) MAGRGFSWGPGHLNEDNARFLLLAALIVLYLLGGAAVFSALELAHERQAKQRWEERLAQFSRGHQLSRDELRGFLRHYEEATRAGIRVDNVRPRWDFTGAFYFVGTVVSTIGFGMTTPATVGGKIFLIFYGLVGCPSTILFFNLFLERLITIIAYIMKSCHQRQLRRRGALPQESLKDAGQCEVDSLAGWKPSVYYVMLILCTASILISCCASAMYTPIEGWSYFDSLYFCFVAFSTIGFGDLVSSQNAHYESQGLYRFANFVFILMGVCCIASLFNVISILIKQSLNWILRKMDSGCCPQCQRGLLRSRRNVVMPGSVRNRCNISIETDGVAESDTDGRRLSGEMISMK | – | binds |
